Results taken from paper PMC4401514.
pKd: −log10 of the molar value.

Target: activated Cry1Ac toxin of Bacillus thuringiensis subsp. kurstaki HD73 (Bacillus thuringiensis subsp. kurstaki HD73) (UniProt P05068)
Assay: SPR; BIAcore 3000; Cry1Ac immobilised on CM5 chip by amine coupling; HaALP1f injected at 31.25-500 nM; HBS (10 mM HEPES, 150 mM NaCl, 0.005% Tween20, pH 7.4), 40 ul/min; 1:1 Langmuir model; apparent rate constants

Substance: HaALP1f, his-tagged fragment of alkaline phosphatase HaALP1 from Helicoverpa armigera (from UniProt B4Z1D6 192-451) (domain or fragment)
- pKd: 8.12
- koff: 0.00248 s⁻¹
- kon: 327000 M⁻¹ s⁻¹
